Measured values reported in patent US10973880B2, “Compositions and methods for treating pulmonary hypertension” (Acceleron Pharma Inc., priority 2016, dated 2021).
Changes are numbered by the printed parent chain. Numbers in names are those of the source. Blank lines part the entries; values can stand above or below the molecule they belong to.

Tests used:
GDF8 [1] = target: T1, GDF8 (Homo sapiens, UniProt O14793); experiment: Biacore assay, receptor captured with anti-hFc antibody; format: binding
T1 sequence (O14793 267-375): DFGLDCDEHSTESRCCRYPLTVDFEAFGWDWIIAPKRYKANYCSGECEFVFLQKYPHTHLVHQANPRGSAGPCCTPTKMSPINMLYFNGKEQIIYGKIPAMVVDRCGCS
Procedure: (§1) Binding of certain ActRIIB-Fc proteins and GDF traps to ligands was tested in a Biacore assay.
(§2) The ActRIIB-Fc variants or wild-type protein were captured onto the system using an anti-hFc antibody. Ligands were injected and flowed over the captured receptor proteins.

activin A [2] = target: T2, activin A (Homo sapiens, UniProt P08476); experiment: as above; format: binding
T2 sequence (P08476 311-426): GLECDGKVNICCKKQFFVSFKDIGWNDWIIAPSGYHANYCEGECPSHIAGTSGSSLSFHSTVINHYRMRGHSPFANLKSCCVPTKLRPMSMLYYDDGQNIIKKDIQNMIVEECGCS
Procedure: as §1, §2

GDF11 [3] = target: T3, GDF11 (Homo sapiens, UniProt O95390); experiment: Biacore-based binding assay, receptor captured with anti-Fc antibody
T3 sequence (O95390 299-407): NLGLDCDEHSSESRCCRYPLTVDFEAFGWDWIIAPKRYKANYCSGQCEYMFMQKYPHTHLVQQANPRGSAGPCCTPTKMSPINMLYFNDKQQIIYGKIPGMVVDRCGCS
Procedure: (§3) A Biacore™-based binding assay was used to compare ligand binding selectivity of the ALK4-Fc:ActRIIB-Fc heterodimeric complex described above with that of ActRIIB-Fc and ALK4-Fc homodimer complexes. The ALK4-Fc:ActRIIB-Fc heterodimer, ActRIIB-Fc homodimer, and ALK4-Fc homodimer were independently captured onto the system using an anti-Fc antibody. Ligands were injected and allowed to flow over the captured receptor protein. Results are summarized in the table below, in which ligand off-rates (kd) most indicative of effective ligand traps are denoted in bold font.

GDF8 [4] = target: T1, GDF8; experiment: as above
Procedure: as §3

activin A [5] = target: T2, activin A; experiment: as above
Procedure: as §3

activin B = target: T4, activin B (Homo sapiens, UniProt P09529); experiment: as above
T4 sequence (P09529 293-407): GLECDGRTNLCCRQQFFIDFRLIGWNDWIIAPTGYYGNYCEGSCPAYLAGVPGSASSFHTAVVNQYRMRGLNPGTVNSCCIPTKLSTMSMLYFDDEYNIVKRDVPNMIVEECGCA
Procedure: as §3

GDF11 [6] = target: T3, GDF11; experiment: Biacore assay, receptor captured with anti-hFc antibody; format: binding
Procedure: as §1, §2

activin = experiment: ActRIIB-Fc affinity for ligand (description); format: binding; settings: ascertained by Applicants
GDF11 [7] = target: T3, GDF11; experiment: ActRIIB-Fc affinity for ligand (description); format: binding; settings: ascertained by Applicants

B3: ActRIIB(L79D 20-134)-hFc: GDF trap: ActRIIB amino acids 20-134 with L79D substitution fused to human Fc (SEQ ID NO: 46) (protein)
chain: GRGEAETRECIYYNANWELERTNQSGLERCEGEQDKRLHCYASWRNSSGTIELVKKGCWDDDFNCYDRQECVATEENPQVYFCCCEGNFCNERFTHLPEAGGPEVTYEPPPTAPTGGGTHTCPPCPAPELLGGPSVFLFPPKPKDTLMISRTPEVTCVVVDVSHEDPEVKFNWYVDGVEVHNAKTKPREEQYNSTYRVVSVLTVLHQDWLNGKEYKCKVSNKALPVPIEKTISKAKGQPREPQVYTLPPSREEMTKNQVSLTCLVKGFYPSDIAVEWESNGQPENNYKTTPPVLDSDGSFFLYSKLTVDKSRWQQGNVFSCSVMHEALHNHYTQKSLSLSPGK
Koff, GDF11 (GDF11 [6]): 0.000439 s⁻¹ | Koff, GDF8 (GDF8 [1]): 0.00083 s⁻¹ | KD, Activin A (activin A [2]): Low binding

B5: ActRIIB(L79E 20-134)-hFc: GDF trap form with a glutamate rather than an aspartate at position 79, human Fc fusion (protein)
chain: B3 chain with D60E
Koff, GDF11 (GDF11 [6]): 0.000274 s⁻¹ | Koff, GDF8 (GDF8 [1]): 0.0009 s⁻¹ | KD, Activin A (activin A [2]): Low binding

B6: ActRIIB(A24N 20-134)-hFc: ActRIIB(20-134)-hFc variant with A24N mutation (protein)
chain: B3 chain with A5N, D60L
Koff, GDF11 (GDF11 [6]): 6.35e-05 s⁻¹ | Koff, Activin A (activin A [2]): 0.000346 s⁻¹ | Kon, Activin A (activin A [2]): 3.34e+06 M⁻¹ s⁻¹

B7: ActRIIB(P129S, P130R 20-134)-hFc: ActRIIB(20-134)-hFc variant with P129S and P130R mutations (protein)
chain: B3 chain with D60L, P110S, P111R
Koff, GDF8 (GDF8 [1]): 0.00018 s⁻¹ | Koff, Activin A (activin A [2]): 0.000417 s⁻¹ | Kon, Activin A (activin A [2]): 5.02e+06 M⁻¹ s⁻¹

Further lines, with some results ahead:

Koff, GDF8 (GDF8 [1]): 0.000209 s⁻¹ | Koff, Activin A (activin A [2]): 0.000628 s⁻¹ | Kon, Activin A (activin A [2]): 7.46e+06 M⁻¹ s⁻¹
B1: ActRIIB(R64K 20-129)-hFc: ActRIIB(20-129)-hFc variant with R64K mutation (protein)
chain: GRGEAETRECIYYNANWELERTNQSGLERCEGEQDKRLHCYASWKNSSGTIELVKKGCWLDDFNCYDRQECVATEENPQVYFCCCEGNFCNERFTHLPEAGGPEVTYEPPGGGTHTCPPCPAPELLGGPSVFLFPPKPKDTLMISRTPEVTCVVVDVSHEDPEVKFNWYVDGVEVHNAKTKPREEQYNSTYRVVSVLTVLHQDWLNGKEYKCKVSNKALPVPIEKTISKAKGQPREPQVYTLPPSREEMTKNQVSLTCLVKGFYPSDIAVEWESNGQPENNYKTTPPVLDSDGSFFLYSKLTVDKSRWQQGNVFSCSVMHEALHNHYTQKSLSLSPGK

ka, GDF11 (GDF11 [3]): 4.8e+06 M⁻¹ s⁻¹ | kd, GDF11 (GDF11 [3]): 0.0048 s⁻¹ | ka, GDF8 (GDF8 [4]): 130000 M⁻¹ s⁻¹ | kd, GDF8 (GDF8 [4]): 0.0019 s⁻¹ | ka, Activin A (activin A [5]): 580000 M⁻¹ s⁻¹ | kd, Activin A (activin A [5]): 0.012 s⁻¹ | KD, Activin B (activin B): No binding
B2: ALK4-Fc homodimer: homodimer complex of ALK4-Fc fusion polypeptide (protein)
chain: SGPRGVQALLCACTSCLQANYTCETDGACMVSIFNLDGMEHHVRTCIPKVELVPAGKPFYCLSSEDLRNTHCCYTDYCNRIDLRVPSGHLKEPEHPSMWGPVE
modifications: left off: a dimerising Fc or GST
notes: homodimer complex of ALK4-Fc fusion polypeptide

Koff, GDF11 (GDF11 [6]): 2.41e-05 s⁻¹ | Koff, GDF8 (GDF8 [1]): 4.71e-05 s⁻¹ | Koff, Activin A (activin A [2]): 0.000325 s⁻¹ | Kon, Activin A (activin A [2]): 6.82e+06 M⁻¹ s⁻¹
B4: ActRIIB(R64K 20-134)-hFc: ActRIIB(20-134)-hFc variant with R64K mutation (protein)
chain: B3 chain with R45K, D60L

affinity for GDF11 (GDF11 [7]): relatively low affinity
B8: A64 20-134: ActRIIB-Fc, amino acids 20-134 of SEQ ID NO: 1 with alanine at position 64 (protein)
chain: GRGEAETRECIYYNANWELERTNQSGLERCEGEQDKRLHCYASWANSSGTIELVKKGCWLDDFNCYDRQECVATEENPQVYFCCCEGNFCNERFTHLPEAGGPEVTYEPPPTAPT
modifications: Fc fusion partner without entry
affinity for activin (activin): relatively low affinity
